Measured values reported in PMC7588011, “Engineering Stem Cell Factor Ligands with Different c-Kit Agonistic Potencies” (Molecules, 2020).
Where a chain is given by its changes, count along the chain named. Names and notes keep the numbering of the source.

B1: SCF_(M,K91E), soluble (ligand, UniProt P21583 26-214, looked up)
chain: EGICRNRVTNNVKDVTKLVANLPKDYMITLKYVPGMDVLPSHCWISEMLVQLSDSLTDLLDKLSNISEGLSNYSIIDKLVNIVDDLVECVEENSSKDLKKSFKSPEPRLFTPEEFFRIFNRSIDAFKDFVVASETSDCVVSSTLSPEKDSRVSVTKPFMLPPVAASSLRNDSSSSNRKAKNPPGDSSLH
notes: stem cell factor (SCF), SCFM (V49L, F63L) with K91E, selected from the first-generation yeast display library; source: purified in non-glycosylated form (production described in the Supplementary Materials)
B2: SCF_(M,K91E,L98R), soluble (ligand, UniProt P21583 26-214, looked up)
chain: B1 chain with L98R
notes: stem cell factor (SCF), SCFM (V49L, F63L) with K91E and L98R, selected from the second-generation yeast display library; also called SCF_(K91E,L98R); source: purified in non-glycosylated form (production described in the Supplementary Materials)
B3: SCF_(M,S64P,F126S,V131A,E134G,V139I), soluble (ligand, UniProt P21583 26-214, looked up)
chain: B1 chain with S64P, E91K, F126S, V131A, E134G, V139I
notes: stem cell factor (SCF), SCFM (V49L, F63L) with S64P, F126S, V131A, E134G and V139I, selected from the first-generation yeast display library; also called SCFM,N; source: purified in non-glycosylated form (production described in the Supplementary Materials)

Key:
[1] = target: SCFM, stem cell factor V49L F63L double mutant, soluble (UniProt P21583); experiment: small angle X-ray scattering; purified SCFWT and SCFM at 3 or 5 mg/mL (193 or 322 µM), 25 °C; radius of gyration compared with that of the theoretical monomer and dimer from PDB 1SCF
[2] = target: T1, recombinant c-Kit (R&D Systems) (UniProt P10721 26-524); experiment: SPR; ProteOn XPR36; c-Kit amine-coupled to a GLC chip; SCF proteins flowed in PBST at 100 µL/min, 25 °C; KD from the equilibrium-binding phase, 1:1 Langmuir model; BSA channel subtracted; conditions: both partners purified
T1 construct: c-Kit receptor tyrosine kinase, recombinant; No catalogue number printed; the discussion calls it 'recombinant soluble c-Kit'; also called surface-immobilized c-Kit; recombinant soluble c-Kit; source: bought: R&D Systems
T1 sequence (P10721 26-524): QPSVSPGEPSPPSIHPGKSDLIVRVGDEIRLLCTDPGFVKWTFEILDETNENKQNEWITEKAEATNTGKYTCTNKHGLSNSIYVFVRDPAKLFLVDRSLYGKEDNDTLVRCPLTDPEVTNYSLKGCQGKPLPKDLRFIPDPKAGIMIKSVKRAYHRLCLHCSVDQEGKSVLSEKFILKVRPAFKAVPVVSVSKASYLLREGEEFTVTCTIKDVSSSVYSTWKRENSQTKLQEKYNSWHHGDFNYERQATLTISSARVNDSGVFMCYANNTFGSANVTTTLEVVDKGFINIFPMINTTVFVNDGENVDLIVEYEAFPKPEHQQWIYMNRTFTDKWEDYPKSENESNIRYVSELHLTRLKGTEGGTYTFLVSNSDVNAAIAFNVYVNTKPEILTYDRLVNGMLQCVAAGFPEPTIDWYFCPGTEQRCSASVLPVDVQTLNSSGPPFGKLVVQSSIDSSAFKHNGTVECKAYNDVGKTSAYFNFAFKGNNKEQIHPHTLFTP

Molecule	stoichiometry N [1]	Kd [2]
SCFM, stem cell factor V49L F63L double mutant, soluble (from UniProt P21583 26-214) (ligand)	2	–
B1	–	88.9 nM
B2	–	40.7 nM
B3	–	74.4 nM
